# From US20220204602A1 (published 2022)
# Values joined by “and” are separate entries in the source; they are usually repeats but may differ in a detail not shown here. Equal entries are not always repeated.
# B1: parental mAb H1-8/L1-9 ScFV (scFv)
# chain: MDWTWVFLFLLSVTAGVHSQVQLVQSGAEVKKPGASVKVSCKASGYTITDYHLDWVRQAPGQGLEWMGDISPNYGYTIYNQKFKDRVTMTTDTSTSTAYMELRSLRSDDTAVYYCARRDIRYSGNSYKWYFDVWGQGTMVTVSSMEAPAQLLFLLLLWLPDTTGDIQLTQSPSFLSASVGDRVTITCRTSKSISKHLAWYQQKPGKAPKLLIYSGSTLQSGVPSRFSGSGSGTEFTLTISSLQPEDFATYYCQQHNEYPYTFGQGTKLEIK
# B2: scFV mutant clone 14C6 from mAb 1819 affinity maturation (T to H mutation in position 9 of VH CDR2) (scFv)
# chain: MDWTWVFLFLLSVTAGVHSQVQLVQSGAEVKKPGASVKVSCKASGYTITDYHLDWVRQAPGQGLEWMGDISPNYGYTIYNQKFKDRVTMTTDTSTSTAYMELRSLRSDDTAVYYCARRDIRYSGNSYKWYFDVWGQGTMVTVSSMEAPAQLLFLLLLWLPDTTGDIQLTQSPSFLSASVGDRVTITCRTSKSISKHLAWYQQKPGKAPKLLIYSGSTLQSGVPSRFSGSGSGTEFTLTISSLQPEDFATYYCQQHNEYPYTFGQGTKLEIK
# B3: anti-C5 mAb FMEH-IgG4PLA (antibody)
# heavy: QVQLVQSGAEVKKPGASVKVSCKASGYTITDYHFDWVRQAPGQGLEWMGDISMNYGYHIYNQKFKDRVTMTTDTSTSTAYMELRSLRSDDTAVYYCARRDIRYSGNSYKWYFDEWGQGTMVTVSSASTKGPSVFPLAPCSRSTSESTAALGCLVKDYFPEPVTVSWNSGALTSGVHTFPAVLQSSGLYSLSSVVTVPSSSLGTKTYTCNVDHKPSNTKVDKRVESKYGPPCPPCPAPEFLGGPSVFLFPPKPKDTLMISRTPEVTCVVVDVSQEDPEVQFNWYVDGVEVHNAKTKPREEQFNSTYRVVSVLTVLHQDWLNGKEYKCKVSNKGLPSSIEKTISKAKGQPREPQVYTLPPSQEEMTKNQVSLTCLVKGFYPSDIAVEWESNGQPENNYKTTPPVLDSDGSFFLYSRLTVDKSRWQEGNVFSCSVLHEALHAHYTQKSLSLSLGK
# light: DIQLTQSPSFLSASVGDRVTITCRTSKSISKHLAWYQQKPGKAPKLLIYSGSTLQSGVPSRFSGSGSGTEFTLTISSLQPEDFATYYCQQHNEYPYTFGQGTKLEIK
# How the values were obtained:
# human complement C5 [1] = target: T1, human complement C5 (human, UniProt P01031 19-673; P01031 678-1676); test: competition ELISA; pH 7.4
# human complement C5 [2] = target: T1, human complement C5; test: competition ELISA; pH 6.0
# Cyno FcRn = target: T2, Cyno FcRn (Cynomolgus, UniProt Q8SPV9 24-297; Q8SPW0 21-119); test: SPR (Biacore); pH 6.0
# T2 chain 1: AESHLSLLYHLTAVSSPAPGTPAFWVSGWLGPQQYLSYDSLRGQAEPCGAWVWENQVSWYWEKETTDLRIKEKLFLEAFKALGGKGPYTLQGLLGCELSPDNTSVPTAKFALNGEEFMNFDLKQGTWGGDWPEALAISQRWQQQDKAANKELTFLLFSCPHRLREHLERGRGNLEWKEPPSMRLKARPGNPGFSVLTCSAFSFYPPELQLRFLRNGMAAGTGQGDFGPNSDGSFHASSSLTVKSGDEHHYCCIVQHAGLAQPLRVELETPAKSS
# T2 chain 2: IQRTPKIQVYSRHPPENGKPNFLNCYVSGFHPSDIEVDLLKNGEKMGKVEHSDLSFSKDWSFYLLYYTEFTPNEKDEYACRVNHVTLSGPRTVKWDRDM
Binder,EC50 (human complement C5 [1]),EC50 (human complement C5 [2]) [µg/mL],Ka (Cyno FcRn) [M⁻¹]
B1,2.08 µg/mL and 1.62 µg/mL and 2.33 µg/mL,–,–
B2,0.404 µg/mL,4.97,–
B3,–,–,7.13e+07
